The values that follow are results of earlier work, collected in publication PMC4760235.

The Kd is the constant that tells how readily two partners part at equilibrium.

The target of the data set is CD161 (Homo sapiens) (UniProt Q12918).
Sequence of UniProt Q12918 (Q12918 whole entry): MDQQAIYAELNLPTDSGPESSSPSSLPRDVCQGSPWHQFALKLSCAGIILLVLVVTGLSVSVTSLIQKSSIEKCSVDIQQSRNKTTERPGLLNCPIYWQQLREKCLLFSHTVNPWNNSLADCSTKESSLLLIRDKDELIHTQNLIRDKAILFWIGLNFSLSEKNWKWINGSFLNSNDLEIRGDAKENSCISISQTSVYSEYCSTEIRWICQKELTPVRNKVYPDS

As for LLT1 (from UniProt Q9UHP7), the Kd was 48 µM.
